Experiment: yeast display, Sf9 membrane polyspecificity reagent, FACS + sequencing; frameworks hold sequencing errors
In short: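 Sorting gates, low and high (top ~1%), were placed on anti-HA fluorescence to track expression and on streptavidin fluorescence to track reagent binding. A clone's polyreactivity label is taken from the gate it came out of. The reagent was 10% biotinylated, detergent-solubilized Sf9 membrane, applied for 1 hour at 4 °C to galactose-induced yeast display cells.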

Row | Sequence | polyreactivity (PSR sort gate)
1 | QVQLVESGGGLVQARGSLRLSCAGSGSTLPSYAMGWYRQAPGKERELVAAISSSGGRTYYADSVKGRFTISRDNAKNTVYLLMNSLKPEDTAVYYCAALSVANYHGTDSGYWGQGTQVTVSS | high polyreactivity
2 | QVQLVESGGGLVQARGSLRLSCASSGFIFSRYAMGWYRQAPGKESELVAAITSGGSTYYADSVKGRFTISRDNAKNTVYLQMNSLKPEDTAVYYCNVVSKSRISQYVGYSYDYWGQGTQVTVSS | high polyreactivity
3 | QVQLVESGGGLVQARGSLRLSCASSGITFWKYTMGCYRQAPGKESELVASIRIGGSTYYADSVKGRFTISRDNAKNTVYLQMNSLKPEDTAVYYCAAKGIYGLQGSPRSGYYYWGQGTQVTVSS | high polyreactivity
4 | QVQLVESGGGLVQARGSLRLSCPASGLIFPAYAMGWYRQAPGKERELVATITWRGGSTYYADSVKGRFTISRDNAKNTVYLQMNSLKPEDTAVYYCATRPRYYYFRYDYWGQGTQVTVSS | high polyreactivity
5 | QVQLVESGGGLVQARGSLSLSCAASGSIFYYNAIGWYRQPPGKERELVATITSAVSTNYADSVKGRFTISRANAKNPVYLQMNSLKPEDTAVYYCAADDYQVQYDYWGQGTQVTVSS | low polyreactivity
6 | QVQLVESGGGLVQARGSLSLSCAATGSTSYINAMGWSSQAPWKERELVAAIRSGGSTKYADSVKGRFTISRDNAKNTVYLQMNSVLPEDSSVYYCAARNVYKTSGFRWVWNYDYWGQGTQVTVSS | high polyreactivity
7 | QVQLVESGGGLVQAVGSHRLSSAASGFIFDYNAMGWYRQEPVKVRELVAAISVSDDSTYYADSVKGRFTISRDNAKNTVYLQLNSLKPEVPAGYYCAAEWWDVIAPYDYWGLGTQVTVSS | low polyreactivity
8 | QVQLVESGGGLVQAVGSHRLSSAASGFTFRWYTMGWYRQAPGKERELVASIRYGGGSTYYADSVKGRFTISRDNAKNTVYLQMNCLKPEDTAVYYCAAESAWTSPYDYWGQGTQVTVSS | high polyreactivity
9 | QVQLVESGGGLVQAVGSLRLSCAASGFTIIDNAMGWYRQARGKERELVAAISISGGRTYYADSVKGRFTISRDNAKNTVYLQMNSLKPEDTAVYYCAAGKHRRDDYCGQGTQVTVSS | high polyreactivity
10 | QVQLVESGGGLVQAVGSLRLSCAASGLIFFYYSMGWYRPAPGKERELVAAIRTNYADSVKGRFTISRDNAKNTVYLQMNSLKREDTAAYYCAAESSQTPTSAFDYWGQGTQVTVSS | low polyreactivity
11 | QVQLVESGGGLVQAVGSLRLSCAASGLTFYSNAMGWYRQAPGKERELVATISQDGGRTYADSLKGRFTISRDNAKNTVYLQMNSLKPEDTAVYYCAKVRERINYDYWGQGTQVTVSS | low polyreactivity
12 | QVQLVESGGGLVQAVGSLRLSCAASGRIFGPNAMGWYRQAPGKERELVAAITGSGGSTYADSVKGRFTISRDNAKNTVYLQMNSLKPEDTAVYYCAKKTWYSYDWGQGTQVTVSS | high polyreactivity
13 | QVQLVESGGGLVQAVGSLRLSCAASGRIFGYYVMGWYRQAPGKERELVAAITSNGGSTYYADSVKGRFTFSRDNAKNTVYLQMNSLKPEDTAVYYGNKDKRYYRYGYWGQGTQVTVSS | high polyreactivity
14 | QVQLVESGGGLVQAVGSLRLSCAASGRTFQSYTMGWYRQAPGKEREFVAAFRDSGGSTYYADSVKGRFTISRDNAKNTVFLQMNSLKPEDTAVYYCAAYRPRKYDYWGQGTQVTVSS | high polyreactivity
15 | QVQLVESGGGLVQAVGSLRLSCAASGRTFYGYALGWYRQQPGKVSELVAAISADTGRTRYADSVKGRFTISRDNAKNTVYLQMICLNPEDTAVYYCATRLFPQSRYYYWGQGTQVTVSS | high polyreactivity
16 | QVQLVESGGGLVQAVGSLRLSCAASGSIFAVNTIGWYRQAPGKERELVASISQRGSSTYYADSVKGRFTISRDIAKNTVYLQMNSLIPEDTAVYYCAVVQRYWYAGIVPYDYWGQGTQVTVSS | high polyreactivity
17 | QVQLVESGGGLVQAVGSLRLSCAASGSIFGAYAMGWYRQAPGKERELVAAITSGGSTNYADSVKGRFTISRDNAKNTVYLQMNSLKPEDTAVYYCAARRRYAKFRYDYWGQGTQVTVSS | high polyreactivity
18 | QVQLVESGGGLVQAVGSLRLSCAASGSILASNAMGWYRQAPGKERELVAAITTSGGSTYYADSVKGRFTISRDNAKNTVYLQMNSLKPEDTAVYYCNAEYWLGRWLRYGYWGQGTQVTVSS | high polyreactivity
19 | QVQLVESGGGLVQAVGSLRLSCAASGSIYGYAMGWYIQAPGKERELVAAISGRGGRTYYADSVKGRFTISRDNAKNTVYLQMNSLKPEDTAVYYCNFQWRYPYHYTVDYWGQGTQVTVSS | high polyreactivity
20 | QVQLVESGGGLVQAVGSLRLSCAASVIIFDVNAMGWYRQAPAKERELVATISKRGGTTYYADSVKGRFTISRDNAKNTVYLQMYSLKPEDTAVYYCAARHQTLRSYRYDYWGQGTQVTVSS | low polyreactivity
21 | QVQLVESGGGLVQAVGSLRLSFAASGFTFGRNSLGWYRQAPGKERELVAAMTSRVGSTYYADSVKGRFTISRDKAKNTLYLQMNSLKPEDTAVYYCAAVKGPERPTTPYDYWGQGTQVTVSS | high polyreactivity
22 | QVQLVESGGGLVQAVVSLRLSCAASGRIFAYNAMGWYIQATGKERELVAAISSGGNTYYADSVKGRFTISRDNAKNTVYLQMNSLKPEDTAVYYCNAGVGWHRYYSNYDYWGLGTQVTVSS | low polyreactivity

Row | Sequence | polyreactivity (PSR sort gate)
23 | QVQLVESGGGLVQDGGSLRLSCAASGRIFGYYAMGGYRQAPGKERELVASINGGGSTNYADSVKGRFTISRDNAKTTVYLQMNSLKPEDTAVYDCAAAQWAYWLLYNYWGHGTQVTVSS | low polyreactivity
24 | QVQLVESGGGLVQEGGRLRLSCAASGITFRYYAMGWYRQAPGKERELVAAISWGGGSTYYADSVKGRFTISRDNATNTVYLQMNSLKPEDTAVYYCNARGSVRPYGPRATLDYWGQGTQVTVSS | high polyreactivity
25 | QVQLVESGGGLVQEGGSLRLICAASGSTFYDYAMGWYRQAPGKERELVAAINWSSDTTYYADSVKGRFTISRDNAKNTVYLQMNSMKPEDTAVYYCATDSAYRGYDYWGQGTQVTVSS | low polyreactivity
26 | QVQLVESGGGLVQEGGSLRLRCAASGRIFYNYAMGCYRQAPGKERELVAAITGRGGRTYYADSVKGRFTISRDNAKNTVYLQINSLKPEDTAVYYCSVRAGTAGYPKYDYWGPGTQVTVSS | high polyreactivity
27 | QVQLVESGGGLVQEGGSLRLRCAASGSTFIRYVMGWYRQAPGKERELVAGINSSGGSTNYADSVKGRFTISRDNAKNTVYLQMNSLKPVDTAVYYCNADLRSEYVYWGQGTQVTVSS | low polyreactivity
28 | QVQLVESGGGLVQEGGSLRLSCAASESNFPRNAMGLYRKEPGKEREIVAAISSAGSTYYADSVKWRFTISRDNAKNTVYLQMNSLKQEDTAVYYCAARLYWPLIVVDLYGYDYWGQGNQVTVSS | low polyreactivity
29 | QVQLVESGGGLVQEGGSLRLSCAASGFTFAYYAMGWYRQAPGKERELVASISYNGGITNYADSVKGRFTISRYNAKNTVYLQMNSLKPEDTAVYYCAAGVFFFTFDYWGQGTQVTVSS | low polyreactivity
30 | QVQLVESGGGLVQEGGSLRLSCAASGFTFRQYAMGRSRQAPGKEMELVAAITKTGGSTYYADSVKGRFTISRDHAKNTVYLQMNSLKPEDPAVYYCNAARETRPRDYYWGQGTQVTVSS | low polyreactivity
31 | QVQLVESGGGLVQEGGSLRLSCAASGFTFTSNAMGWYRQAPGKERELVAAITYSGGITYYADSVKGRFTISRDNAKNTVYLQMNSLKPEDTAVYYCAADSTPYVLSGNYDYWGQGTQVTVSS | low polyreactivity
32 | QVQLVESGGGLVQEGGSLRLSCAASGFTVTDYAMGLYRQAPGKERELVAAITSSGGRTYYADSVKGRFTISRDNAKNTVYLQMNSLKPEDTAGYYCTARPHGSWFEYDYWGQGTEVTVSS | high polyreactivity
33 | QVQLVESGGGLVQEGGSLRLSCAASGIIFDGNARGWYRQAPGKEKELVASITSDSSTNYADSVKGRFTISRDNAKNTVYLQMNSLKPEDTAVYYCAAAHWIAPRSDYWGQGTQVTLSS | low polyreactivity
34 | QVQLVESGGGLVQEGGSLRLSCAASGRTFYINGLGWYRQAPGKEREFVASITWRGGRTYYADSVKGRFTISRDNAKNTVYLQMNSLKPEDTAVYYCNAVGLGGRATSRWYTHYYWGQGTQVTVSS | high polyreactivity
35 | QVQLVESGGGLVQEGGSLRLSCAASGRTSNINAMGWYRQAPGKERELVAAINSDGSTYYAYSVKGRFTISRDNAKNTVYLQMNSLKPEDTAVYYCAAVSLFRDSQFDYWGQGTQVTVSS | low polyreactivity
36 | QVQLVESGGGLVQEGGSLRLSCAASGSIFDTYAMGWYRQAPGKERELVAAISSGGRTYYADSVKGRFTISRDNAKNTDYFQMNSLKPEYTAVYYCAKERYQQGNYYRYGYWGQGTQVTVSS | high polyreactivity
37 | QVQLVESGGGLVQEGGSLRLSCAASGSIFDVYAMGWYRQAPGKERELVAAISSSGSTYYADSVKGRFTISRDNAKNTVYLQMNSLKPEDTAVYYCAADQADDDDYYYWGQVTQVTVSS | low polyreactivity
38 | QVQLVESGGGLVQEGGSLRLSCAASGSIFDVYAMGWYRQAPGKERELVAAISSSGSTYYADSVKGRFTISRDNAKNTVYLQMNSLKPEDTAVYYCASDQADDDDYYYWGQGNQVTVSS | low polyreactivity
39 | QVQLVESGGGLVQEGGSLRLSCAASGSIFFPYAMGWYRQAPGKEREFFADITWSGGSTYYADSVKGRFTISRDNAKNTVYLQMNSLKPEDTAVYYCNTDYYLLSVVWFSYTLYEYWGQGTQVTLSS | high polyreactivity
40 | QVQLVESGGGLVQEGGSLRLSCAASGSIFGYYAMGWYRQAPGKERELVAAISRSGGSTYYADSVKGRFTISRDNAKNTVSLQMNSLKPEDTAFYYCAADDYPYGNYYWGKGTQVTVSS | high polyreactivity
41 | QVQLVESGGGLVQEGGSLRLSCAASGSIFPYYAMGWYRQAPGKERELVAAISSAGSTNYADSVKGRFTISRDNAKNTVYLQMNSLKPEDTAVYYCAADLFYREFDYWGQGTQVTVSS | low polyreactivity
42 | QVQLVESGGGLVQEGGSLRLSCAASGSIFSGYAMGWYRPAPGKERELVAAISSSGGSTYYADSVKGRFTISRDNAKNTVYLQMNSLKPEDTAFYYCAADARWLWVYGAYGGLDYWGQGTQVTLSS | low polyreactivity
43 | QVQLVESGGGLVQEGGSLRLSCAASGSILAGYAMGWYRQPPRKERELVDDITSGGDTYYADSVKGRFTISRDNAKNTVYLQMKSLKPEDTAVYYCNAVYEGRYEYAYYYRYDYWGQGTQVTVSS | high polyreactivity

From the nanobody polyreactivity screen of Harvey et al. (2022)
